Assay [1] deals with MsSepF_(core) (C-terminal FtsZ-binding core of Methanobrevibacter smithii SepF, residues 54-149) (Methanobrevibacter smithii). Put plainly: not stated; MsSepFcore in solution (Supplementary Fig. 6); method not given.
Assay [2] has the same target. Put plainly: SPR; Biacore T200, 25 °C, 150 mmol/L NaCl, 25 mmol/L Hepes pH 8; MsSepFcore amine-coupled on CM5 (3200 and 5000 RU), FtsZCTD peptide flowed over; steady-state fit; apparent Kd. On the technique in general: Surface plasmon resonance follows binding to a sensor surface in real time, without labels.

Stoichiometry N and Kd data for two molecules are collected here from paper PMC8178401.

MsSepF_(core) (C-terminal FtsZ-binding core of Methanobrevibacter smithii SepF, residues 54-149) (Methanobrevibacter smithii), sequence (main, as listed by the source): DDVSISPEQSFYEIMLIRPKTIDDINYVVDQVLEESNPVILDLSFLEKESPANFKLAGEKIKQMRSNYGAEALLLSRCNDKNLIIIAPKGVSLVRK

In assay [1], “MsSepF_(core) (C-terminal FtsZ-binding core of Methanobrevibacter smithii SepF, residues 54-149) (domain or fragment)” displayed a stoichiometry N of 2. Consider NEDQLDDFIDGIF [FtsZCTD peptide (C-terminal domain of Methanobrevibacter smithii FtsZ)], for which the Kd in assay [2] was 84 µM.

In general, stoichiometry N refers to a count of units in the complex or per binding partner.
